Source: patent US20250388663A1 (INSTITUT NATIONAL DE LA SANT ET DE LA RECHERCHE M DICALE, published 2025)
Values belong to the molecule of their own block, whether it stands above or below them.

What was measured:
mouse serum albumin [1] = biological target: T1, mouse serum albumin (mouse, UniProt P07724 25-608); assay: SPR (openSPR), control channel blocked with the non-relevant sdAb and ethanolamine, albumin perfused; conditions: scale: % of binding to OptiAlb-12-coated channels
T1 construct: also called MSA; murine serum albumin
T1 sequence (P07724 25-608 limits assumed): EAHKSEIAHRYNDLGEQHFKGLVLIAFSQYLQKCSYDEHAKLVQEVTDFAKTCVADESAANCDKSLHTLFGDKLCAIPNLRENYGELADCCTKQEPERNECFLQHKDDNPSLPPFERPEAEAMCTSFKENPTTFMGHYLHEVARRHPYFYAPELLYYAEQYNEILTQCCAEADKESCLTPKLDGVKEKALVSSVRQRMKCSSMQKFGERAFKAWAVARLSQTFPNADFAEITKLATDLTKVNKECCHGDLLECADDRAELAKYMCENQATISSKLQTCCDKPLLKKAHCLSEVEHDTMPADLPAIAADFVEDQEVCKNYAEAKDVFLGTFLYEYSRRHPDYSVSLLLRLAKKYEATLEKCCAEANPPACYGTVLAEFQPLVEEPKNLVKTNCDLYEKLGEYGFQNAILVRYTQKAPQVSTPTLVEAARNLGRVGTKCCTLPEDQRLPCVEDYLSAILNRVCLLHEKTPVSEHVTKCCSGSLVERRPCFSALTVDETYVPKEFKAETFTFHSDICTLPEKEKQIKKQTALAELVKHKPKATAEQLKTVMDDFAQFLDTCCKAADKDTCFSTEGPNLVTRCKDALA

[2] = biological target: human serum albumin (human) (UniProt P02768); assay: as above; conditions: scale: % of binding to OptiAlb-12-coated channels
mouse serum albumin [3] = biological target: T1, mouse serum albumin; assay: ELISA, MSA coated at 2 ug/ml, nanobody titrated, anti-cMyc-HRP detection
Experimental: After washing wells with PBS/0.1% Tween-20, wells were blocked by incubating with PBS/1% bovine serum albumin (BSA) for 1 h at 37° C. […] After three washes with PBS/0.1% Tween-20, bound proteins were probed using polyclonal peroxidase-labelled anti-cMyc antibodies (1:5,000 dilution), and detected via hydrolysis of 3,3′,5,5′-tetramethylbenzidine.

binding to the control channel as percent of binding to OptiAlb-12-coated channels (mouse serum albumin [1]): < 3 | binding to the control channel as percent of binding to OptiAlb-12-coated channels [2]: < 3
Molecule: non-relevant single-domain antibody (VHH)

binding result (mouse serum albumin [3]): binds
B1: OptiAlb-11 (VHH)
VHH: EVQLVESGGGLVQPGNSLRLSCAASGFTFSSFGMSWVRQAPGKGPEWVSSISGSGHDTLYADSVKGRFTISRDNAKTTLYLQMNSLRPEDTAVYYCTIGGSLTRSSQGTLVTVSS
notes: not shown: C-terminal histidine- and cMyc-tag from the pHEN6 plasmid
